Reference: patent US20220306765A1 (SUZHOU TRANSCENTA THERAPEUTICS, published 2022)

Assays:
human CLDN18.2 [1] = molecular target: T1, human CLDN18.2 (human); experiment: FACS, NUGC4 cells
T1 construct: also called hCLDN18.2; Claudin-18 splice variant 2

human CLDN18.2 [2] = molecular target: T1, human CLDN18.2; experiment: cell-based or functional assay
human CLDN18.2 [3] = molecular target: T1, human CLDN18.2; experiment: FACS, MKN45-CLDN18.2-high cells
Method: (§1) Log-phase HEK293-CLDN18.2 and NUGC4 cells were re-suspended in PBS. After 3× cell wash by using FACS washing buffer (PBS+2% FBS), 100 μl/well diluted hybridoma Abs with a range from 400 nM to 0.002 nM were added into each well for incubation at 4° C. for 30 min. Again, cells were washed 3 times by using FACS washing buffer and then incubated with 100 μl/well goat anti-mIgG-FITC (1:400 dilution) at 4° C. for another 30 min. After a final 3× wash using FACS washing buffer, cells were analyzed by flow Cytometry.

human CLDN18.2 [4] = molecular target: T1, human CLDN18.2; experiment: FACS, HEK293-CLDN18.2 cells
[5] = molecular target: T2, human CLDN18.2-mRFP1, wild-type (human); experiment: FACS, transfected HEK293, 10 µg/ml antibody;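 note: antibody binding read by flow cytometry with a FITC-labelled anti-human IgG secondary, gated on RFP-positive cells, each mutant signal expressed against wild-type CLDN18.2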
T2 construct: human CLDN18.2 (amino acid 1-261) fused to mRFP1 (amino acid 1-225), transiently expressed in HEK293 cells; also called wild-type human CLDN18.2-mRFP
Method: (§2) The transfected HEK293-CLDN18.2 or HEK293-CLDN18.1 cell were resuspended in PBS with 2% BSA at density of 10\hat{ }5/well, 100 μl/well. […] Next, cells were washed 3 times by FACS washing buffer and incubated with 100 μl/well goat anti-hIgG (H+L)-FITC (1:200 dilution) at 4° C. for another 30 min. Finally, cells were washed 3 times by FACS washing buffer and analyzed by Flow Cytometry. To analyze binding to CLDN18.2 transfected cells, the RFP positive cells were used for control gating.

human CLDN18.2-mRFP Q29M = human CLDN18.2-mRFP Q29M (human); experiment: FACS, transfected HEK293, 10 µg/ml antibody;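 note: antibody binding read by flow cytometry with a FITC-labelled anti-human IgG secondary, gated on RFP-positive cells, each mutant signal expressed against wild-type CLDN18.2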
Method: as §2

human CLDN18.2-mRFP N37D = human CLDN18.2-mRFP N37D (human); experiment: FACS, transfected HEK293, 10 µg/ml antibody;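 note: antibody binding read by flow cytometry with a FITC-labelled anti-human IgG secondary, gated on RFP-positive cells, each mutant signal expressed against wild-type CLDN18.2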
Method: as §2

human CLDN18.2-mRFP A42S = human CLDN18.2-mRFP A42S (human); experiment: FACS, transfected HEK293, 10 µg/ml antibody;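 note: antibody binding read by flow cytometry with a FITC-labelled anti-human IgG secondary, gated on RFP-positive cells, each mutant signal expressed against wild-type CLDN18.2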
Method: as §2

human CLDN18.2-mRFP N45Q = human CLDN18.2-mRFP N45Q (human); experiment: FACS, transfected HEK293, 10 µg/ml antibody
Method: as §2

human CLDN18.2-mRFP Q47E = human CLDN18.2-mRFP Q47E (human); experiment: FACS, transfected HEK293, 10 µg/ml antibody
Method: as §2

human CLDN18.2-mRFP E56Q = human CLDN18.2-mRFP E56Q (human); experiment: FACS, transfected HEK293, 10 µg/ml antibody
Method: as §2

human CLDN18.2-mRFP G65P = human CLDN18.2-mRFP G65P (human); experiment: FACS, transfected HEK293, 10 µg/ml antibody
Method: as §2

human CLDN18.2-mRFP L69I = human CLDN18.2-mRFP L69I (human); experiment: FACS, transfected HEK293, 10 µg/ml antibody
Method: as §2

human CLDN18.1 = molecular target: T3, human CLDN18.1 (human, UniProt P56856 1-261); experiment: flow cytometry on HEK293-CLDN18.1 cells, one antibody concentration
T3 construct: on HEK293-CLDN18.1 cells; also called Claudin-18 splice variant 1; NP_057453.1

human CLDN18.2 [6] = molecular target: T1, human CLDN18.2; experiment: flow cytometry on HEK293-CLDN18.2 cells; unit taken from the concentration axis
Method: as §1

human CLDN18.2 [7] = molecular target: T1, human CLDN18.2; experiment: flow cytometry on MKN45-CLDN18.2-high cells; unit taken from the concentration axis
Method: as §1

human CLDN18.2-mRFP Q47E (human), sequence (chain, as listed by the source Q47E Q47E limits assumed): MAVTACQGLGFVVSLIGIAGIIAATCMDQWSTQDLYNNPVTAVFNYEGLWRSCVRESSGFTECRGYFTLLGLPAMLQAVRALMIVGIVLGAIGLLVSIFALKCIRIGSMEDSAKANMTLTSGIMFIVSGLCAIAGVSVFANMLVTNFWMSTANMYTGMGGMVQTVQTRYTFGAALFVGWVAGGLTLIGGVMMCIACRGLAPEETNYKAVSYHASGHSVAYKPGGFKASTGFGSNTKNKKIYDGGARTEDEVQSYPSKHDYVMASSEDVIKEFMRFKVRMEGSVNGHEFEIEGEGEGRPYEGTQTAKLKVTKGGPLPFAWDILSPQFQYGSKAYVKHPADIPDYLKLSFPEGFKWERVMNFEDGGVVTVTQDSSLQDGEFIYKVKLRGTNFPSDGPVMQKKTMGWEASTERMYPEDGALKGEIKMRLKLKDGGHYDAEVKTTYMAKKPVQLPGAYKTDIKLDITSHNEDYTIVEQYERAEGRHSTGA
human CLDN18.2-mRFP N37D (human), sequence (chain, as listed by the source N37D N37D limits assumed): as the sequence (chain, as listed by the source Q47E Q47E limits assumed) above, with N37D, E47Q counted along it
human CLDN18.2-mRFP A42S (human), sequence (chain, as listed by the source A42S A42S limits assumed): as the sequence (chain, as listed by the source Q47E Q47E limits assumed) above, with A42S, E47Q counted along it
human CLDN18.2-mRFP Q29M (human), sequence (chain, as listed by the source Q29M Q29M limits assumed): as the sequence (chain, as listed by the source Q47E Q47E limits assumed) above, with Q29M, E47Q counted along it
human CLDN18.2-mRFP E56Q (human), sequence (chain, as listed by the source E56Q E56Q limits assumed): as the sequence (chain, as listed by the source Q47E Q47E limits assumed) above, with E47Q, E56Q counted along it
T3 sequence (P56856 whole entry, canonical isoform): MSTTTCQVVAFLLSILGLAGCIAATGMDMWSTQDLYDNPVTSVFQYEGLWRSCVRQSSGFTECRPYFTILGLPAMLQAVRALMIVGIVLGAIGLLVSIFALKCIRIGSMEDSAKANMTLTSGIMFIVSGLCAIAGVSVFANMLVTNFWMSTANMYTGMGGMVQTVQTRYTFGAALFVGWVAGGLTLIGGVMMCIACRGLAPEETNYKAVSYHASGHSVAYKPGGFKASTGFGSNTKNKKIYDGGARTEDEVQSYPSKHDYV
human CLDN18.2-mRFP N45Q (human), sequence (chain, as listed by the source N45Q N45Q limits assumed): as the sequence (chain, as listed by the source Q47E Q47E limits assumed) above, with N45Q, E47Q counted along it
human CLDN18.2-mRFP G65P (human), sequence (chain, as listed by the source G65P G65P limits assumed): as the sequence (chain, as listed by the source Q47E Q47E limits assumed) above, with E47Q, G65P counted along it
human CLDN18.2-mRFP L69I (human), sequence (chain, as listed by the source L69I L69I limits assumed): as the sequence (chain, as listed by the source Q47E Q47E limits assumed) above, with E47Q, L69I counted along it

B1: 18B10-C (antibody, human IgG1, V domains shown)
VH: EFQLQQSGPELEKPGASVRISCKTSGYSFTGYNMNWVKQSNGESLEWIGNIDPYYGGTSYNQKFKGKATLTVDKSSSTAYMQLKSLTSEDSAVYYCARMYHGNAFDYWGQGTTLTVSS
VL: DIVMTQSPSSLTVTAGEKVTMSCKSSQSLLNSGNLKNYLTWYQQKPGQPPKLLIYWASTRKSGVPDRFTGSGSGTDFTLTLSSVQAEDLAVYYCQNDYSYPLTFGAGTKLELK
notes: also called chimeric 18B10
EC50 (human CLDN18.2 [1]): 7.8 µg/mL | ADCC reporter assay (Jurkat-NFAT-luc-FcγRIIIA-V176), MKN45-CLDN18.2-medium target cells (human CLDN18.2 [2]): 50 fold | ADCC reporter assay, NUGC4 target cells (human CLDN18.2 [2]): > 40 fold | fold increase in binding potency vs IMAB362 (human CLDN18.2 [3]): ~2 fold | EC50 (human CLDN18.2 [4]): 0.96 µg/mL | binding percentage vs wild-type CLDN18.2 [5]: 100% | binding percentage vs wild-type CLDN18.2 (human CLDN18.2-mRFP Q29M): 83.5% | binding percentage vs wild-type CLDN18.2 (human CLDN18.2-mRFP N37D): 106% | binding percentage vs wild-type CLDN18.2 (human CLDN18.2-mRFP A42S): 69.2% | binding percentage vs wild-type CLDN18.2 (human CLDN18.2-mRFP N45Q): 92% | binding percentage vs wild-type CLDN18.2 (human CLDN18.2-mRFP Q47E): 109% | binding percentage vs wild-type CLDN18.2 (human CLDN18.2-mRFP E56Q): 6.57% | binding percentage vs wild-type CLDN18.2 (human CLDN18.2-mRFP G65P): 118% | binding percentage vs wild-type CLDN18.2 (human CLDN18.2-mRFP L69I): 112% | binding result (human CLDN18.1): no binding (tested: 10 ug/ml) | EC50 (human CLDN18.2 [6]): 1.35 µg/mL | EC50 (human CLDN18.2 [7]): 1.87 µg/mL
